In the experiment the target is T1, GST-MYCBP2cat (Homo sapiens, UniProt O75592).
T1 construct: GST-tagged MYCBP2cat (Ser4378-Phe4640), wt and mutants, were expressed at 16° C. overnight; made in house; host or cells: E. coli BL21-DE3
T1 sequence (O75592 4416-4678 limits assumed): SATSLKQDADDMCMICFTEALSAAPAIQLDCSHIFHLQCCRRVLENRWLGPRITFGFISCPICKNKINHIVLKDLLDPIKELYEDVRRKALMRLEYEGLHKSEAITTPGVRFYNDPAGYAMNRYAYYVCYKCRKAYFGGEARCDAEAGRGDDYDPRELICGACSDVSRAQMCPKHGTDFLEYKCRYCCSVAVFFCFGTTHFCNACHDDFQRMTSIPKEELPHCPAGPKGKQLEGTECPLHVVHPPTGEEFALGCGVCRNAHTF
Briefly: Multiple turnover E2 discharge panel (threonine discharge). The note with it: 17 E2s tested. Format: biochemical. On the procedure:
E2s were screened for threonine discharge activity with GST-MYCBP2cat as described for the amino acid panel. E2s were also incubated in the presence of threonine but in the absence of GST-MYCBP2cat. These samples provided a reference to distinguish between intrinsic E2˜Ub instability and E3-dependent discharge.

B1: UBE2E1: E2 conjugating enzyme (protein, UniProt P51965 2-193, looked up)
Ubiquitin-conjugating enzyme …: SDDDSRASTSSSSSSSSNQQTEKETNTPKKKESKVSMSKNSKLLSTSAKRIQKELADITLDPPPNCSAGPKGDNIYEWRSTILGPPGSVYEGGVFFLDITFTPEYPFKPPKVTFRTRIYHCNINSQGVICLDILKDNWSPALTISKVLLSICSLLTDCNPADPLVGSIATQYMTNRAEHDRMARQWTKRYAT
Regarding B1, the “E2 partner activity with MYCBP2cat” value is recorded as “robust activity”.

For the origin of these results see US20210017569A1, “Ligase Screening Assay” (UNIVERSITY OF DUNDEE, priority 2018, published 2021).
